We go through four molecules from patent US11623951B2, “Antibodies to R-spondin 3” (National Health Research Institutes, priority 2017, dated 2023).

The term kon denotes a measure of how fast the partners come together. A higher kon goes with faster complex formation.

Several values for one entry are separate records, joined by “and”; a condition that tells them apart may be missing. Identical values can stand only once.

Experiment [1] relates to human SNU-1411 colon xenograft tumor. Nature of the experiment: SNU-1411 colon xenograft tumor carrying PTPRK(e13)-RSPO3(e2) fusion transcript. It counts as in vivo, mice. Here is the method: FIG. 15 is a set of graphs showing anti-tumor efficacy of in human SNU-1411 colon xenograft tumor carrying PTPRK(e13)-RSPO3(e2) fusion transcript. Tumor cells were injected into the mice and treatments were initiated when the tumors reaches 200 mm^3. Antibodies were given at 25 mg/kg once every other week (Q2W) and paclitaxel at 20 mg/kg once every week (Q1W). Both antibodies and […] were administered by intravenous injection. Paclitaxel was given from day 1 to day 32 and combination groups from day 1 to day 46. Both antibodies and paclitaxel were administered by intravenous injection. For each treatment cycle, antibodies were given on day 1 and paclitaxel on day 3. Tumor and body weight measurements were taken on the indicated days. Mean±SEM. *: p<0.05 vs. control mAb by one-way ANOVA followed by Tukey's post-test comparison.
To determine the effect of antibodies on SNU-1411 xenograft tumor, tumor-bearing animals were randomized and treatment began when mean tumor volumes reached approximately 150-200 mm^3. Antibodies were given once every other week (Q2W) and paclitaxel was administered once a week (Q1W). Both antibody and paclitaxel were administered intravenously. Tumor growth was measured twice a week by an electronic caliper. Tumor volumes were calculated with the formula (L×W^2)/2, where L was the longest and W was the shortest axis of the tumor. Animal weights were recorded once a week. Mice were examined frequently for overt signs of any adverse drug-related side effects. At the end of the study, all the mice were euthanized.

The test system of experiment [2] is RSPO1, 2, 3, and 4. Nature of the experiment: Antigen-binding ELISA, selectivity among RSPO1-4. The text has this: FIG. 3 is a set of graphs showing Anti-RSPO3 hybridoma antibodies reactivity measured by ELISA. These hybridoma antibodies were reacted with RSPO1-4 antigen immunoblots, which reflect with the RSPO3 antigen. (A) A1, A2, A4, A5, A6, and A9 clones; and (B) B1, B3, B4, B8, and B9 clones.
To assess the RSPO-binding capability of antibodies, purified antibodies were reacted with RSPO1, 2, 3, and 4 on immunoblots. To perform antigen-binding ELISA assay, 96-well high binding polystyrene plates (Corning) were coated with 2 μg/ml of recombinant RSPO3 preparation in the capture buffer by overnight incubation at 4° C. Coated plates were washed twice with PBS supplemented with 0.05% Tween 20 (PBST). The plates were blocked with PBST—10% BSA and assayed with ELISA standard protocol for 1 h at room temperature.
Background: In an ELISA, binding on a coated surface is turned into a signal by an enzyme label.

Experiment [3] deals with RSPO3-Wnt signaling (hRSPO3), MDA-MB436 TCF/LEF-Luc cells. Put plainly: TCF/LEF-Luc WNT reporter assay in MDA-MB436 cells stimulated by Wnt3a plus human RSPO3. It counts as cell-based. The note with it: MDA-MB436 reporter cell line. Here is the method:
FIG. 4 is a set of graphs showing RSPO3 Abs targeting the canonical Wnt signaling and in vitro testing for inhibition of β-catenin activity. (A) A1, A2, A4, A5, A6, and A9 clones; (B) B1, B3, B4, B8, and B9 clones; and (C) Dose-response effect of elevated A4 and A6 clones on RSPO-Wnt signaling. MDA-MB436 TCF/LEF-Luc cells were incubated with a combination of Wnt3a (20 ng/mL) and RSPO3 (50 ng/mL) in the presence of 20 μg/mL anti-RSPO3 antibodies clone A1, A2, A4, A5, A6, A9 or 131R002. As controls, cells were incubated with a combination of Wnt3a and RSPO3, Wnt3a only, RSPO3 only, or with no addition. The cells were incubated for 16 hours and the luciferase activity assay was performed using One-Glo Luciferase Assay System.
FIG. 6 is a set of graph showing that anti-RSPO3 Ab inhibits WNT reporter activity stimulated by combination of Wnt3a and RSPO3. […] The cells were incubated for 16 hours. The luciferase activity assay was performed using One-Glo Luciferase Assay System.
Wnt signaling leads to β-catenin/TCF dependent transcriptional responses. MDA-MB436-TCF/LEF-Luc cells, a gift from Dr. Kelvin Kun-Chih Tsai, were employed to monitor the activity of Wnt signal transduction pathways. See, e.g., Wang et al. (2013). Gastroenterology (145): 1110-1120. In brief, MDA-MB436-TCF/LEF-Luc cells were seeded in black flat bottom 96 well culture plates (Costar) in RSPO Medium supplemented with 10% FBS and incubated overnight at 37° C., 5% CO2. 24 hours after incubation, cells were treated with anti-RSPO3 ab, 20 ng/ml WNT3a (R&D system) and RSPO ligands (Peprotech Systems) where appropriate and further incubated for 16 hours. Luciferase activity was measured using Bright-Glo Luciferase Assay System (Promega).
A general note: A reporter such as luciferase makes a cellular process visible.

For experiment [4], the target named is T1, RSPO3 (Homo sapiens, UniProt Q9BXY4).
T1 sequence (Q9BXY4 22-272): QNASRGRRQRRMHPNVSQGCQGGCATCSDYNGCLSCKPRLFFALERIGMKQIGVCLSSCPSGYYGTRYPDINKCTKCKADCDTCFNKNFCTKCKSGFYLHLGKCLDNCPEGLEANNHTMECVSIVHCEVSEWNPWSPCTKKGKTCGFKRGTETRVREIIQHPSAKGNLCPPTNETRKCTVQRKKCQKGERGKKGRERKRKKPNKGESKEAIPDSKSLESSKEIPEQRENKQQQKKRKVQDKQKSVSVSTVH
Nature of the experiment: Octet (ForteBio) kinetic binding to biotinylated RSPO3. Particulars: 30° C. Here is the method:
The streptavidin-coated sensors were coated with 10 μg/ml of biotinylated RSPO3 as described in the handbook of ForteBio. Antibody concentrations were in the range of 0.75 and 93.8 nM. Quantitative kinetic binding analysis was performed with pH-adjusted PBS with 0.5% BSA. All steps were run at 30° C. with a continuous shaking speed at 1000 rpm.
To assess the RSPO3-binding affinities of the antibodies, kinetics assays were performed by the Octetsystems. The purified monoclonal antibodies (mAbs) from batch-A clones (A1, A4, A6, A9), along with the reference Ab-131R002, were examined for binding with RSPO-3.

Experiment [5] concerns hRSPO3 overlapping linear peptides. Put plainly: PepSet ELISA epitope mapping with linear 10-mer peptides of RSPO3. Particulars: antibody 10 μg/ml. It counts as binding, human. The text has this:
FIG. 8 is a set of graphs showing mapping of the α-RSPO3 Ab epitopes on RSPO3 protein by Pep-set. These histograms represent the ability of each 10-mer oligopeptide to bind the RSPO3 Abs 131R010(A), 131R002 (B), and hybridoma A6 (C) as indicated in the figure. QNASRGRRQR (SEQ ID NO: 74); ASRGRRQRRM (SEQ ID NO: 75); RGRRQRRMHP (SEQ ID NO: 84); RRQRRMHPNV (SEQ ID NO: 76); CLSCKPRLFF (SEQ ID NO: 77); SCKPRLFFAL (SEQ ID NO: 78); ERGKKGRERK (SEQ ID NO: 79); GKKGRERKRK (SEQ ID NO: 80); KGRERKRKKP (SEQ ID NO: 81); RERKRKKPNK (SEQ ID NO: 82); RENKQQQKKR (SEQ ID NO: 83).
ELISA for PepSet library was employed to determine α-RSPO3 hB1 antibodies and RSPO3 binding epitope. […] The colorimetric reaction were then stop by 2N HCL and the optical density at 450 nm of each well were determined immediately.
To identify the binding epitopes of α-RSPO3 Abs, an overlapping peptide library (10-mer for each peptide, offset: 2 amino acid residues, total number of peptides to cover the mature hRSPO3:122) derived from hRSPO3 amino sequences was prepared by Mimotope, Inc. The binding of α-RSPO3 mAbs to the overlapping peptides derived from hRSPO3 was measured. […] According to the epitope mapping results using linear peptides (FIG. 8 and Table 6), it was concluded that hB1 likely binds to a conformationlly-determined epitope on huRSPO3.

Consider `CC(=O)O[C@H]1C(=O)[C@@]2(C)[C@H]([C@H](OC(=O)c3ccccc3)[C@]3(O)C[C@H](OC(=O)[C@H](O)[C@@H](NC(=O)c4ccccc4)c4ccccc4)C(C)=C1C3(C)C)[C@]1(OC(C)=O)CO[C@@H]1C[C@@H]2O` [Paclitaxel, reference compound], for which the “Tumor volume on day 32” value in experiment [1] (antibodies 25 mg/kg Q2W, paclitaxel 20 mg/kg Q1W, i.v.) was 949 ± 105 mm^3; in experiment [1] (antibodies 25 mg/kg Q2W, paclitaxel 20 mg/kg Q1W, i.v., listed as paclitaxel), 950 mm^3. In addition, the “Tumor volume on day 18” value in experiment [1] (antibodies 25 mg/kg Q2W, paclitaxel 20 mg/kg Q1W, i.v., mean±SEM) is 329 ± 59 mm^3. Also, the “Tumor volume reduction, % of Control mAb” value in experiment [1] (day 18) is 69% and 69 ± 6* %.

B1: A4: murine anti-RSPO3 mAb, IgG1; VH SEQ ID NO: 2, VL SEQ ID NO: 4 (antibody, V domains shown)
VH: QVQLQESGAELAKPGASVKMSCKASGHTLTYYWMHWVKQRPGQGLEWIGYIDPSTGYSEYNQRFEGKATLTADKSSGTVYMQLSSLTSEDSAVYYCARNGPFAYWGQGTLVTVSA
VL: DNVLTQSPAIMSASPGEKVTMTCSASSSVNYMYWYQQKPGSSPRLLIYDTSKLASGVPVRFSGSGSGTSYSLTISRMEAEDAATYYCQQWSSSPLTFGVGAKLEIKR
modifications: heavy chain variable region; Light chain variable region
For B1, the “selectivity in binding among RSPO1-4 in ELISA” value (“selectivity” for short) in experiment [2] is on record as “only reacted with RSPO3”. Besides, the “dose-dependent inhibitory effect in TCF/LEF-Luc reporter” value in experiment [3] is recorded as “significantly inhibitory effect in a dose-dependent manner”. In addition, in experiment [4], the RMax amounted to 0.3588, the “kdis” value was determined as 0.000884 s⁻¹ and the “kon” value came out at 32700 M⁻¹ s⁻¹. Besides, in experiment [5], the “Signal (binding to linear RSPO3 peptides)” value was “neither the A4 nor the hB1 mAbs showed detectable binding signals”.

B2: B1: murine anti-RSPO3 mAb, IgG1; VH SEQ ID NO: 10, VL SEQ ID NO: 12 (antibody, V domains shown)
VH: QIQLQESGPGLVKPSQSLSLTCSVTGYSITSGYYWNWIRQFPGNKLEWMGYISYDGTNNYNPSLKDRISITRDTSMNQFFLKLNSVTTEDTATYYCSVLLIQYFNIWGAGTTVTVSS
VL: DIQMTQSPASLSASVGETVTITCRTSESVNNFLAWFHQKQGKSPQLLVYHAKTLADGVSSRFSGSGSGTQYSLKINSLQPEDFGNYYCQHFWSIPWTFGGGTKLEIKR
modifications: Heavy chain variable region; Light chain variable region
Consider B2, for which, in experiment [2], the “selectivity” value is on record as “only reacted with RSPO3”. Further, the “dose-dependent inhibitory effect in TCF/LEF-Luc reporter” value in experiment [3] is on record as “significantly inhibitory effect in a dose-dependent manner”.

B3: A6: murine anti-RSPO3 mAb, IgG2a; VH SEQ ID NO: 6, VL SEQ ID NO: 8 (antibody, V domains shown)
VH: QVQLQQSGAEIVRSGASVKLSCTASGFSITEYYIHWVKQRPDQGLEWIGMIDPENGDTDYAPKFQGKATMTADTSSNTVNLQLSSLTSEDTAVYYCHGPGPLEYWGQGTTLTVSS
VL: DIVMTQSPLSLPVSLGDQASISCRSSQSIVHSNGNTYLEWYLQKPGQSPNLLIYRVSNRFSGVPDRFNGSGSGTDFTLKISRVEPEDLGVYSCFQASHVPYTFGGGTKLEIKR
modifications: Heavy chain variable region; Light chain variable region
In the case of B3, in experiment [2], the “selectivity” value is reported as “only reacted with RSPO3”. Also, the “dose-dependent inhibitory effect in TCF/LEF-Luc reporter” value in experiment [3] was “significantly inhibitory effect in a dose-dependent manner”. Moreover, in experiment [4], the RMax is listed as 0.2151, the “kdis” value is 0.0025 s⁻¹ and the on-rate constant (kon) turned out to be 241000 M⁻¹ s⁻¹.
